Five variants from FireProtDB (doi:10.1073/pnas.0911904107) can be followed below.

B1: Lipid A palmitoyltransferase PagP, P37001 (parent)
chain: MNVSKYVAIFSFVFIQLISVGKVFANADEWMTTFRENIAQTWQQPEHYDLYIPAITWHARFAYDKEKTDRYNERPWGGGFGLSRWDEKGNWHGLYAMAFKDSWNKWEPIAGYGWESTWRPLADENFHLGLGFTAGVTARDNWNYIPLPVLLPLASVGYGPVTFQMTYIPGTYNNGNVYFAWMRFQF

The variants in the series derive from B1. The note with it: Escherichia coli (strain K12), pH 8, 25 °C, Urea, CD, structure 1THQ, whole UniProt chain shown.
[1] abbreviates: sodium phosphate buffer, transition: 2, reversible: yes.
[2] abbreviates: Sodium phosphate 50 mM, reversible: Yes.

With Y112G, under setting [1], the “ddG of mutation (higher = less stable)” value was found to be 6.14 kcal/mol, the “denaturant midpoint (higher = more stable)” value (“denaturant midpoint” below) was 8.24 M and the unfolding free energy came out at 8.24 kcal/mol.

As for W42A, under setting [1], the “ddG of mutation (higher = less stable)” value came to 6.21 kcal/mol, the “denaturant midpoint” value is 8.17 M and the unfolding free energy was determined as 8.17 kcal/mol.

For M182A, under setting [2], the “ddG of mutation (higher = less stable)” value turned out to be 0.77 kcal/mol, the “denaturant midpoint” value was determined as 8.3 M and the unfolding free energy is 13.6 kcal/mol.

Q185A: under setting [2], the “ddG of mutation (higher = less stable)” value was -0.18 kcal/mol, the denaturant m value stood at 1.64 kcal/mol/M, the “denaturant midpoint” value is 8.88 M and the unfolding free energy was determined as 14.6 kcal/mol. Under setting [1], the “ddG of mutation (higher = less stable)” value amounted to 5.5 kcal/mol, the “denaturant midpoint” value is 8.88 M and the unfolding free energy is 8.88 kcal/mol.

Turning to Y178A, under setting [2], the “ddG of mutation (higher = less stable)” value was determined as 0.55 kcal/mol, the “denaturant midpoint” value stood at 8.43 M and the unfolding free energy came out at 13.8 kcal/mol. Under setting [1], the “ddG of mutation (higher = less stable)” value amounted to 5.95 kcal/mol, the “denaturant midpoint” value was found to be 8.43 M and the unfolding free energy was determined as 8.43 kcal/mol.
